Measurements taken from the nanobody polyreactivity screen of Harvey et al. (2022).

Assay: yeast display, Sf9 membrane polyspecificity reagent, FACS + sequencing; frameworks hold sequencing errors
Summary of the method: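 A nanobody's polyreactivity label depends on the gate it was sorted from. Yeast display cells were stained with 10% biotinylated, detergent-solubilized Sf9 membrane reagent for 1 hour at 4 °C, enriched on streptavidin microbeads and sorted by FACS. The low and high (top ~1%) gates were set on anti-HA fluorescence for expression and streptavidin fluorescence for reagent binding.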

Sequence	polyreactivity (PSR sort gate)
QVQLVETGAGLVQAGGSLRLSCGASGLTFARYAMGWYRQAPGKERELVAGIDSTGGTTYYADSVKGRFTISRDNAKNTVYLQMNSLKPVDTAVYYCYYWGLGTQVTVSS	low polyreactivity
QVQLVETGGALVQAGGSLRLSCAASGFTFIDYTMGCYSQAPGKERELVARITDTGSTNYADSVKVRFTISRDNAKNTVYLQMNSLKQEDTAVYYCNKDDRNDRTIPGYDPEYDYWGQGTQVTVSS	low polyreactivity
QVQLVETGGGLFQAGGSLRLSCAASGFIYSYAMGWYRQAPGKERELDAAISRSGGSTYYADSVKGRFTISRDNAKNTVYLQMNSLKPEDTAVYYCAARPNSNRYVRYGYWGQGTQVTVSS	high polyreactivity
QVQLVETGGGLVHAGGSLRLSCAASGSIFDAYAMGWYRQAPGKERELFASITSGGRTNYADSVKGRFTISRDNAKNTVYLQMNSLKPEDTAVYYCAKVRTRATPGLDYYYWGQGTQVTVSS	high polyreactivity
QVQLVETGGGLVQAGGRLRLSCAASGITFYFNTMGWYRPAPGKERELVASISGGSSTYYADSVKGRFPISRDNAKNTVYLQMISLKREDTAVYYCNAQGSLFRGWFDYDYWGQGTQVTVSS	low polyreactivity
QVQLVETGGGLVQAGGSHRLSCAASGFIIPYYAKGWSRQPPGKERELLAAIDSGGSTNYADSVKGRFTISRDNAKNTVSLQMNRLIPEDTAVYYCAVPSYGVNIWGGFDEYNYWGQGTQVTVSS	high polyreactivity
QVQLVETGGGLVQAGGSLGLSCAASGRTFGVNAMGWYRQAPGKERELVAAITRGGNTYYADSVKGRFTISRDNAKNTVYLQMNSLKPEDTAVYYCAATGWLRIDRPYTYTYGYWGQGTQVTVSS	high polyreactivity
QVQLVETGGGLVQAGGSLRISCAASGFIFPSYAMGWYRQAPGKERELVAAITSGGRTYYADSVKGLFTISRDNAKKTVYLQMNSLKPEDYAVYYCAAKSHSKTGTRYYYCGQGTQVTVSS	high polyreactivity
QVQLVETGGGLVQAGGSLRLCCAASGRIFWYNAMGWYRPAPGKERELVAAISSIDGTTYYADSVKGRFTISRDNAKNTVYLQMNSLKPEDTAVYYCAAEDPADQYDYWGQGTQVTVSS	high polyreactivity
QVQLVETGGGLVQAGGSLRLSCAASASIFTANAMGWYRQAPGKERELVAAISRSGGRTYYADSVKGRFTISRDNAKNTVYLQMNSLKPEDTAVYYCAAVYVYPSTSRYDFWGQGTQVTVSS	high polyreactivity
QVQLVETGGGLVQAGGSLRLSCAASGFIFGYNARGWYRKAPGQVRELVAAISSGGRTYYADSVKGRFTISRDNAKHTVYLQMNSLKPQDTAVYYCSVDPHLYALRGAVYYWGQGTQVTVSS	low polyreactivity
QVQLVETGGGLVQAGGSLRLSCAASGFNFGPYDIGWYIQAPGKERELVAAITDSSGSTHYADSVKGRFTISRDNAKNTVYLQMNSLKPEDTAVYYWAADDSSRTTYDYWGQGTQVTVSS	low polyreactivity
QVQLVETGGGLVQAGGSLRLSCAASGFTFDVYVMGWYRLAPGKERELVAAISWSGDSTYYADSVKGRFTISRDNAKNTVYLQMNSLKPADCAFSFCAAVGYTSRRPVVRYYYWGQGTQVTVSS	high polyreactivity
QVQLVETGGGLVQAGGSLRLSCAASGFTFYNNAMGWYGQAPGKERELGAVITSNGGRTYYADSVKGRFTISRDNAKNTVYLQMNSLKPEDTAVYYCAKDYKAMYLYHYRISGGDVDYWGQGTQVTVSS	low polyreactivity
QVQLVETGGGLVQAGGSLRLSCAASGGIFVTYAMGWYRQAPGKERELVAAITSGDSTYYADSVKGRFTISRDNAKNTVYLQMNSLKAEDTGVYYCAVGSTDRVSAQGSYFTYDYWGQGTQVTVSS	low polyreactivity
QVQLVETGGGLVQAGGSLRLSCAASGIIFFYYGMGWYRQAPGKERELVARISSGGSTNYADSVKGRFTISRDNAKNTVYLHMNSLKQEDTAVYYCAARISTRYGYWGPGTQVTVSS	low polyreactivity
QVQLVETGGGLVQAGGSLRLSCAASGIIIQNNAMGWYRQAPGTERELVAAISSSGGRTYYADSVKGRFTISRDNAKNTVYLQMNSLKPEDTEVYYCNKRWRGSYDYWGQGTQVTVSS	high polyreactivity
QVQLVETGGGLVQAGGSLRLSCAASGITFASYDMGWYRQAPGKEWELVAAISSGGDTTYADSVKGRFTLSRDNAKNTVSLQMNSLKPEDTAVYYCNKDIDFAVSAYESSPRTMYYWGQGTQVTVSS	low polyreactivity
QVQLVETGGGLVQAGGSLRLSCAASGITLPKYAMGWYRQAPGKERELVAAISRSSGRTYYADSVKGRFTISRDNAKNTVYLQMNSLKPEDTAVYYCAASHGGYITRYNYWGQGTQVTVSS	high polyreactivity
QVQLVETGGGLVQAGGSLRLSCAASGLIFYSYTMGWYRQAPGKERELVAVISRSGTSTYYADSVKGRFTISRDNAKNTVYLQMNSLKPEDTAVYYCAARAYVSHYGVSNFGYYYWGQGTQVTVSS	high polyreactivity
QVQLVETGGGLVQAGGSLRLSCAASGNTFHSNAMGCYSQAPGKERELVAAITPSDGDPYYADSVKGRFTISRDNAKNTVYLQMNSLKPEDTAVYYCAAEDDPGEYEYWGQGTQVTVSS	low polyreactivity

Sequence	polyreactivity (PSR sort gate)
QVQLVETGGGLVQAGGSLRLSCAASGNTFVLYAMGWYRQAPGKERELVAAIRRGVRTYADSVKGRFTISRDNAKNTFYLQMNSLIPDDTAVYYCAAYYVFLDNDYWGHGTQVTVSS	high polyreactivity
QVQLVETGGGLVQAGGSLRLSCAASGRIFSNYVMGLYRQAPVKERELVAAISGSGGRTYYADSVKGRFTISRDNAKNTVYVQMNSRTPEDTAVYYCAARRSERDRYGGYYYWGQGTQVTVSS	high polyreactivity
QVQLVETGGGLVQAGGSLRLSCAASGRIIRYNAMGWYSQAPGKERELVAAISTRGGNTYYADSVKGRFTISRDNAKNTVYLQMNSLKPEDTAVYYCNARSSLPYNYWGQGTQVTVSS	high polyreactivity
QVQLVETGGGLVQAGGSLRLSCAASGRISQNAMGWYRQAPGKERELVAAITFSGGSTYYADSVKGRFTISRDNAKNTVYIQMNSLKAEDTAVYYCNVRQYTDGMKYDYWGQGTQVTVSA	low polyreactivity
QVQLVETGGGLVQAGGSLRLSCAASGRISYDYAMGWYRPPPGKERELVAAITTGGNTYYADSVKGRFTISRDNAKNTVYLQLNRLKPEDTAVYYCSVRGPYVRYNRYNYVYWGQGTQVTVSS	low polyreactivity
QVQLVETGGGLVQAGGSLRLSCAASGRIYYVYDMGWYRQAPGKERELVAAISWSGGSTSYADSVKGRFTISRDNAKYTVYLQMNSLKPDDTAVYYCAATSAIGWGYDYWGQGTQVTVSS	low polyreactivity
QVQLVETGGGLVQAGGSLRLSCAASGRNFNWNTMGWYRQAPRKEREFDAAISGSGGSTYYADSVKGRFTISRDNAKNTVYLQMISLKPEDTAVYYCAKRLYYSYYDEMDYWGQGTQVTVSS	high polyreactivity
QVQLVETGGGLVQAGGSLRLSCAASGRTFDGNVMGWYRQEPGKERELGAAISDRGTRTYYADSVKGRFTISRDNAKNTVYLQMNSLKPEDTAVYYCATRVYFSPYRYDYWGQGTQGTVSS	high polyreactivity
QVQLVETGGGLVQAGGSLRLSCAASGRTFRAYAMGWYRQAPGKEMELVAAITSGGSTKYADSVNGRFTISRDNAKNTVYLQMTRLKPEDTAVYYCAATLALESYIYDYWGQGTQVTVSS	high polyreactivity
QVQLVETGGGLVQAGGSLRLSCAASGRTFRYNAMGWYRQAPGKERELVAAITGSGGSTYYADSVKGRFTISRDNAKNTVYLQMNSLKPEDTAVYYCARAYSYRLYPYGSWGQGTQVTVSS	high polyreactivity
QVQLVETGGGLVQAGGSLRLSCAASGRTFWYYAMGWYRQAPVTERELVAYADSVKGRFTISRDNAKNTVYLQMNSLKPEDTAVYYCAVGPVVWFSSSLYYTDYYYWGQGTEVTVSS	low polyreactivity
QVQLVETGGGLVQAGGSLRLSCAASGRTFYGNAMGWYRQAPGKEREFVAAIRGSGGSTYYADSVKGRFTISRDNAKNTVYLQMNSLKPEDTAVSYCNRGWAYGSAYYAKYYYWGQGTQVTVSS	high polyreactivity
QVQLVETGGGLVQAGGSLRLSCAASGRTYAFYAMGWYRQAPGKERELVASISSSGDRPYYADSVKGRFTISRDNAKNTVFLQLNSLKPEDTAVYYCAARWRYTYYYWGQGTQVTVSS	high polyreactivity
QVQLVETGGGLVQAGGSLRLSCAASGSIFEYNAMGWYRQAPGKERELVAAISWSSGTTYYADSVKGRFTISRDNAKNSVYLQMNSLKPEDNAVYYCNAGRYGKDSVYWGQVTQVTVSS	low polyreactivity
QVQLVETGGGLVQAGGSLRLSCAASGSIFGAYAMGWYRQAPGKERELVAAITWTAGSTFYADSVKGRFTISRDNAKNTVYLQMNSLKPEDTAVYYCAAEYYTETQWSRYYRYYYWGQGTQVTVSS	low polyreactivity
QVQLVETGGGLVQAGGSLRLSCAASGSIFLKYAMGWYRQAPGKERELVAAISWSGGRTYYADSVKGRFTISRDNAKNTVYLQMNSLIPEDTAVYYCAAAGRVNNGYRGYGYWGQGTQVTVSS	high polyreactivity
QVQLVETGGGLVQAGGSLRLSCAASGSIFPSYAMGWYRPAPAKERELVAAISRSAGSTYYADSVKGRFTISRDNSKNTVYLQMNSLKPEDTAVYYCADDGYSSRYRYDYWGQGTQVTVSS	low polyreactivity
QVQLVETGGGLVQAGGSLRLSCAASGSIFSIYAMGWYRQAPGKERELVAAISWSGGSTYYADSVKGRFTISRDNAKNTVYLQMNSLKPEDTAVYYCLRQDYHYHPYDYWGQGTQVTVSS	low polyreactivity
QVQLVETGGGLVQAGGSLRLSCAASGSIFTYYAMGWSRQAPGKERELVAAITSGGSTYYADSVKGRFTISRDNAKNTVYLQMNSLKPEDTAVYYCNAVTFYRYYTGKYDYWGQGTQVTVSS	high polyreactivity
QVQLVETGGGLVQAGGSLRLSCAASGSIFVLYAMGWYRQAPGKEREFVAAISSSGGSTYADSVKGRFTISRDNAKNTVYLQMNSLKPEDTAVYYCARDVYLSDPPRDYDYWGQGTQVTVSS	low polyreactivity
